Laboratory results from paper PMC3092483.

How the values were obtained:
[1] = molecular target: full length t-SNAREs; test: co-flotation
[2] = molecular target: GST-C2B fusion protein of synaptotagmin I with the syt^B-IE mutation (I420E) (Drosophila); test: pull-down
[3] = molecular target: GST-C2B fusion protein of synaptotagmin I (wild type) (Drosophila); test: pull-down
[4] = molecular target: GST-C2AB fusion protein of synaptotagmin I (wild type) (Drosophila); test: pull-down
[5] = molecular target: GST-C2AB fusion protein of synaptotagmin I with the syt^B-IE mutation (I420E) (Drosophila); test: pull-down

Row | Substance | percent of wild type binding (% of wild type levels) [1] | increase of binding by Ca2+ over EGTA [2] [units] | increase of binding by Ca2+ over EGTA [3] [units] | fold increase of binding by Ca2+ over EGTA [4] [fold] | increase of binding by Ca2+ over EGTA [4] [units] | fold increase of binding by Ca2+ over EGTA [5] [fold] | increase of binding by Ca2+ over EGTA [5] [units]
1 | synaptotagmin C2AB domain with the syt^B-IE mutation (I420E), as used in the co-flotation assay (domain or fragment) | 70 |  |  |  |  |  | 
2 | full length t-SNAREs (complex) |  | 0.105 | 0.116 | 2.4 | 0.2 | 4.5 | 0.112
